Experimental data: the supplement of paper PMC11246515
± gives the standard deviation of the averaged measurements.

Experiment: total protein half-life in vivo (active degradation + dilution); higher = more stable protein
[1] = E. coli NCM3722 delta-clpP delta-lon delta-hslV, growth: N-lim chemostat, doubling time 6 h
[2] = E. coli NCM3722 delta-clpP, growth: N-lim chemostat, doubling time 6 h
[3] = E. coli NCM3722 delta-hslV, growth: N-lim chemostat, doubling time 6 h
[4] = E. coli NCM3722 delta-lon, growth: N-lim chemostat, doubling time 6 h
[5] = E. coli NCM3722 delta-smpB, growth: N-lim chemostat, doubling time 6 h
[6] = wild type E. coli NCM3722, growth: C-lim chemostat, doubling time 3 h
[7] = wild type E. coli NCM3722, growth: C-lim chemostat, doubling time 6 h
[8] = wild type E. coli NCM3722, growth: C-lim chemostat, doubling time 12 h
[9] = wild type E. coli NCM3722, growth: N-lim chemostat, doubling time 6 h
[10] = wild type E. coli NCM3722, growth: N-lim chemostat, doubling time 12 h
[11] = wild type E. coli NCM3722, growth: P-lim chemostat, doubling time 6 h
[12] = wild type E. coli NCM3722, growth: P-lim chemostat, doubling time 12 h

Sequence | total protein half-life in vivo [1] [h] | total protein half-life in vivo [2] [h] | total protein half-life in vivo [3] [h] | total protein half-life in vivo [4] [h] | total protein half-life in vivo [5] [h] | total protein half-life in vivo [6] [h] | total protein half-life in vivo [7] [h] | total protein half-life in vivo [8] [h] | total protein half-life in vivo [9] [h] | total protein half-life in vivo [10] [h] | total protein half-life in vivo [11] [h] | total protein half-life in vivo [12] [h]
MKLFYKPGACSLASHITLRESGKDFTLVSVDLMKKRLENGDDYFAVNPKGQVPALLLDDGTLLTEGVAIMQYLADSVPDRQLLAPVNSISRYKTIEWLNYIATELHKGFTPLFRPDTPEEYKPTVRAQLEKKLQYVNEALKDEHWICGQRFTIADAYLFTVLRWAYAVKLNLEGLEHIAAFMQRMAERPEVQDALSAEGLK [P0A9D2] | 4.9 ± 0.3 | 5.74 ± 1.9 | 4.81 ± 0.22 | 6.34 ± 1.4 | 4.64 ± 0.58 | 2.84 ± 0.23 | 5.69 ± 0.32 | 11.6 ± 2.5 | 4.81 ± 0.2 | 9.9 ± 0.87 | 5.44 ± 0.29 | 10.6 ± 0.74
MKLGFIGLGIMGTPMAINLARAGHQLHVTTIGPVADELLSLGAVSVETARQVTEASDIIFIMVPDTPQVEEVLFGENGCTKASLKGKTIVDMSSISPIETKRFARQVNELGGDYLDAPVSGGEIGAREGTLSIMVGGDEAVFERVKPLFELLGKNITLVGGNGDGQTCKVANQIIVALNIEAVSEALLFASKAGADPVRVRQALMGGFASSRILEVHGERMIKRTFNPGFKIALHQKDLNLALQSAKALALNLPNTATCQELFNTCAANGGSQLDHSALVQALELMANHKLA | 4.94 ± 0.21 | 3.37 ± 1.2 | – | 3.23 | – | – | – | – | – | – | 2.4 ± 2 | 2.16
MKLHHRMLRHFIAASVIVLTSSFLIFELVASDRAMSAYLRYIVQKADSSFLYDKYQNQSIAAHVMRALAAEQSEVSPEQRRAICEAFESANNTHGLNLTAHKYPGLRGTLQTASTDCDTIVEAAALLPAFDQAVEGNRHQDDYGSGLGMAEEKFHYYLDLNDRYVYFYEPVNVEYFAMNNWSFLQSGSIGIDRKDIEKVFTGRTVLSSIYQDQRTKQNVMSLLTPVYVAGQLKGIVLLDINKNNLRNIFYTHDRPLLWRFLNVTLTDTDSGRDIIINQSEDNLFQYVSYVHDLPGGIRVSLSIDILYFITSSWKSVLFWILTALILLNMVRMHFRLYQNVSRENISDAMTGLYNRKILTPELEQRLQKLVQSGSSVMFIAIDMDKLKQINDTLGHQEGDLAITLLAQAIKQSIRKSDYAIRLGGDEFCIILVDSTPQIAAQLPERIEKRLQHIAPQKEIGFSSGIYAMKENDTLHDAYKASDERLYVNKQNKNSRS | 6.76 ± 0.25 | 6.49 ± 0.48 | 6.32 ± 0.99 | 6.49 ± 0.3 | 5.84 ± 0.39 | 3.35 ± 0.26 | – | – | 6.57 ± 0.21 | 14.1 ± 0.84 | 6.25 ± 0.64 | 12.9 ± 0.26
MKLIPRSSDISPGIDGICPGPFPPNGFTVLTDAAYGNGDCFGLYWPIGQEHKLPIVCETYHDEWRIVPAFSSIKKFEEWLEVNDDDPHENGISIEDQDFAANLFRVARKCLSTGRLDDALPLLQRATEQLPEVSEYWLALAIQYRRCKKTEAAAQAALNAYLGNWAFGVPDNKVIHLLSQAADVPNFQDDPVIQCIKEQGLDLSFGGTKENNNYPLMQMCVDTYFAQRKPLQALTLLHNYAWIMSSETTAFQERYDFNIDEWRAKFRQLCLEYFGDSRTQFT | 3.49 | – | 3.01 | – | 3.03 ± 0.077 | 2.62 ± 0.22 | 4.63 ± 0.52 | 8.76 | 3.47 ± 0.64 | 5.75 ± 0.36 | – | 9.99
MKLIRGIHNLSQAPQEGCVLTIGNFDGVHRGHRALLQGLQEEGRKRNLPVMVMLFEPQPLELFATDKAPARLTRLREKLRYLAECGVDYVLCVRFDRRFAALTAQNFISDLLVKHLRVKFLAVGDDFRFGAGREGDFLLLQKAGMEYGFDITSTQTFCEGGVRISSTAVRQALADDNLALAESLLGHPFAISGRVVHGDELGRTIGFPTANVPLRRQVSPVKGVYAVEVLGLGEKPLPGVANIGTRPTVAGIRQQLEVHLLDVAMDLYGRHIQVVLRKKIRNEQRFASLDELKAQIARDELTAREFFGLTKPA [P0AG40] | 4.18 ± 0.72 | 5.21 ± 0.77 | 4.54 ± 0.2 | 5.2 ± 0.77 | 4.43 ± 0.14 | 3.15 ± 0.15 | 5.64 ± 0.3 | 10.5 ± 0.48 | 4.62 ± 0.35 | 7.426 ± 0.064 | 5.441 ± 0.05 | 11.83 ± 0.032
MKLLIVEDEKKTGEYLTKGLTEAGFVVDLADNGLNGYHLAMTGDYDLIILDIMLPDVNGWDIVRMLRSANKGMPILLLTALGTIEHRVKGLELGADDYLVKPFAFAELLARVRTLLRRGAAVIIESQFQVADLMVDLVSRKVTRSGTRITLTSKEFTLLEFFLRHQGEVLPRSLIASQVWDMNFDSDTNAIDVAVKRLRGKIDNDFEPKLIQTVRGVGYMLEVPDGQ [P0ACZ8] | 5.08 ± 1 | 4.18 ± 0.13 | 4.01 ± 0.29 | 4.738 ± 0.0044 | 3.77 ± 0.45 | 2.77 ± 0.42 | 5.62 ± 0.89 | 8.61 ± 0.84 | 4.53 ± 0.78 | 7.44 ± 0.99 | 4.5 ± 0.3 | 9.01 ± 0.29
MKLLQRGVALALLTTFTLASETALAYEQDKTYKITVLHTNDHHGHFWRNEYGEYGLAAQKTLVDGIRKEVAAEGGSVLLLSGGDINTGVPESDLQDAEPDFRGMNLVGYDAMAIGNHEFDNPLTVLRQQEKWAKFPLLSANIYQKSTGERLFKPWALFKRQDLKIAVIGLTTDDTAKIGNPEYFTDIEFRKPADEAKLVIQELQQTEKPDIIIAATHMGHYDNGEHGSNAPGDVEMARALPAGSLAMIVGGHSQDPVCMAAENKKQVDYVPGTPCKPDQQNGIWIVQAHEWGKYVGRADFEFRNGEMKMVNYQLIPVNLKKKVTWEDGKSERVLYTPEIAENQQMISLLSPFQNKGKAQLEVKIGETNGRLEGDRDKVRFVQTNMGRLILAAQMDRTGADFAVMSGGGIRDSIEAGDISYKNVLKVQPFGNVVVYADMTGKEVIDYLTAVAQMKPDSGAYPQFANVSFVAKDGKLNDLKIKGEPVDPAKTYRMATLNFNATGGDGYPRLDNKPGYVNTGFIDAEVLKAYIQKSSPLDVSVYEPKGEVSWQ | 5.52 ± 0.41 | 5.69 ± 0.46 | 6.306 ± 0.01 | 6.44 ± 0.24 | 5.9 ± 0.07 | 3.091 ± 0.03 | 6.01 ± 0.52 | 12.9 ± 0.35 | 6.62 ± 0.42 | 12.4 ± 1.3 | 5.21 ± 0.21 | 11.2 ± 0.18
